We go through three molecules from PMC7414021, “Dodecin as carrier protein for immunizations and bioengineering applications” (Scientific Reports, 2020).

One data set has as its target T1, mtDod(WT) (Mycobacterium tuberculosis, UniProt I6XY36).
T1 construct: gene Rv1498A

Data set [1] has as its target mtDod-mmACP (Mycobacterium tuberculosis | Mus musculus). Description: SEC.
Data set [2] has the same target. Description: SDS-PAGE (dodecamer stable in SDS).
Data set [3] deals with the molecule itself. Description: SDS-PAGE (dodecamer stable in SDS).

Consider `Cc1cc2nc3c(=O)[nH]c(=O)nc-3n(C[C@H](O)[C@H](O)[C@H](O)COP(=O)(O)O)c2cc1C` [FMN], for which the “thermocyclic fluorescence assay (quenching of FMN fluorescence on binding to the)” value on mtDod(WT) is reported as “fluorescence quenching that is observed when flavins bind to dodecin”.
The term stoichiometry N denotes a count of units in the complex or per binding partner. Take mtDod-mmACP: the stoichiometry N in data set [1] and in data set [2] was 12 in each case.

B1: Mycobacterium tuberculosis dodecin wild type (natural protein)
chain: MSNHTYRVIEIVGTSPDGVDAAIQGGLARAAQTMRALDWFEVQSIRGHLVDGAVAHFQVTMKVGFRLEDS
notes: also called mtDod(WT); mtDod; copies: 12
Turning to B1, the “stoichiometry N” value in data set [3] stood at 12.
